Reference: the nanobody polyreactivity screen of Harvey et al. (2022)

Experiment: yeast display, Sf9 membrane polyspecificity reagent, FACS + sequencing; frameworks hold sequencing errors
Procedure, shortened: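 Using colony PCR, genes from sorted yeast display clones were amplified, then sequenced on MiSeq at 2 × 250 and filtered by CDR length. The clones had been stained with 10% biotinylated, detergent-solubilized Sf9 membrane reagent for 1 hour at 4 °C and sorted by FACS into low and high (top ~1%) gates on anti-HA and streptavidin fluorescence. Polyreactivity labels come from the gate of origin.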

Question: Which “polyreactivity (PSR sort gate)” value does the source give for “QVQLVESGGGLVQAGGSLRLSCAASGGTLWGYGMGWYRQAPGKEREFVAAITWSGGNTNYADSVKGRFTISRDNAMNTVYLLMNSLKPEDTAVYYCNARVYYKRKYDYWGQGTQVTVSS” here?
Answer: high polyreactivity

Question: Which “polyreactivity (PSR sort gate)” value does the source give for “QVQLVESGGGLVQAGGSLRLSCAASGGTSQGNAMGWYRQAPGKERELVAAISWSGGTTYYADSVKGRFTISRDNAKNTVYLQMNSLKPEDTAVYYCAAYRYAGRYVPYGDYDYWGQGTQVTVSS” here?
Answer: low polyreactivity

Question: For “QVQLVESGGGLVQAGGSLRLSCAASGGTVWYYTMGWYRQAPGKERELVARITGGSRTNYADSVNGRFTISRDNAKNTVYLQMNSLKPEDTAVYYCARTSWSGVSYDYWGQGTQVTVSS”, which “polyreactivity (PSR sort gate)” value is on record?
Answer: high polyreactivity

Question: Which “polyreactivity (PSR sort gate)” value does the source give for “QVQLVESGGGLVQAGGSLRLSCAASGGTYELYVMGWYRQAPGKERELVAAISVNGDDTYYADSVKGRITISRDNAKNTVYLQMNSLKPEDTAVYYCAAEVLGSYYLTGYDYWGQGTQVTVSS” here?
Answer: high polyreactivity

Question: With “QVQLVESGGGLVQAGGSLRLSCAASGHFFFYYPLGWYRQAPGKERELVARFTLSGTSTYYADSVKGRFTISRDNAKNSVYLQMNSLKPEDTAVYYCAAPYFTYGQDDDDYWRQGTQVTVSS” as the sequence, how does the “polyreactivity (PSR sort gate)” value read?
Answer: low polyreactivity

Question: For “QVQLVESGGGLVQAGGSLRLSCAASGHFFFYYTMGWYRPAPGKERELVAGITIGGSTNYADSVKGRFTISRDNAKHTVYVQMNSLKPEDTPVYYCNVVKYVYIYSYWEYYYCGQGTQVTVSS”, which “polyreactivity (PSR sort gate)” value is on record?
Answer: low polyreactivity

Question: With “QVQLVESGGGLVQAGGSLRLSCAASGHIFIRYAMGWYRQAPGKDRELVAASTGSGGSTYYADSVKGRFTISRDYAKNTVYLQMNSLKPEDTAVYYCAARTSKKYVPYDYWGQGTQVTVSS” as the sequence, how does the “polyreactivity (PSR sort gate)” value read?
Answer: high polyreactivity

Question: For “QVQLVESGGGLVQAGGSLRLSCAASGHIFVNKAMGWYRQAPGKEREFVAAITSNGARTYYADSVKGRFTISRDNAKNTVYLQMNSLKPEDTAVYYCAKRFARRSQRYDYWGQGTQVTVSS”, which “polyreactivity (PSR sort gate)” value is on record?
Answer: high polyreactivity

Question: For “QVQLVESGGGLVQAGGSLRLSCAASGHTFAYNAMGWYRQAPGKEREFVAAITWSTDNTYYADSVKGRFTISRDYAKYTVYLQMNSLKPEDTAVYYCAVDVYFYYRHYGYWGQGTQVTVSS”, which “polyreactivity (PSR sort gate)” value is on record?
Answer: low polyreactivity

Question: Which “polyreactivity (PSR sort gate)” value does the source give for “QVQLVESGGGLVQAGGSLRLSCAASGHTFRGYDMGWYRQATGKQRELFASISSSGGSTYYADSVKGRFTISRDNAKNTVYLQMNSLKPEDTAVYYCATRDGVVDTEPDQSYAVELDYWGQGTQVTVSS” here?
Answer: low polyreactivity

Question: With “QVQLVESGGGLVQAGGSLRLSCAASGHTFTINAMGWYRQAPGKERELVAAITFSGGRTYYADSVKGRFTISRDNAKNTVYLQMNSLKPEDTAVYYCAADNPGGSIYDYWGQGTQVTVSS” as the sequence, how does the “polyreactivity (PSR sort gate)” value read?
Answer: low polyreactivity

Question: With “QVQLVESGGGLVQAGGSLRLSCAASGHTLAVNAKGWYRQATGKERELVAAITRSGVTTSYADSVKGRFTISRDNAKNTVYLQMNSLKPEDTAVYYCAAQLDASYLTGGWRRHYNYWGQGTQVTVSS” as the sequence, how does the “polyreactivity (PSR sort gate)” value read?
Answer: low polyreactivity

Question: Which “polyreactivity (PSR sort gate)” value does the source give for “QVQLVESGGGLVQAGGSLRLSCAASGHTLGSYAMGWYRQAPGKERELVAAISSRGGTYYADSVKGRFTISRDNAKNTGYFLMNSLKPDDTAVYYWDAVSGSSKMYYWGQGTQVTVSS” here?
Answer: high polyreactivity

Question: For “QVQLVESGGGLVQAGGSLRLSCAASGIFDPNAMGWYRQAPGKERELVAAITSGGSTNYADSVKGRFTISRDNAKNTVYLQMNSLKPEDTAVYYCNADSYDEIKYGYWGQGTQVTVSS”, which “polyreactivity (PSR sort gate)” value is on record?
Answer: low polyreactivity

Question: For “QVQLVESGGGLVQAGGSLRLSCAASGIFDYYGMGWYRQAPGKERELVAAITWNGGSTYYADSVKGRLTISRDNAKNTVYVQMNSLKPEDTAVYYCATTDWYHSPGYDYRGQGTQVTVSS”, which “polyreactivity (PSR sort gate)” value is on record?
Answer: low polyreactivity

Question: For “QVQLVESGGGLVQAGGSLRLSCAASGIFGRNAMGWYRQAPGKERELVAAITGSGGRTYYADSVKGRFTISRDNAKNTVYLQMNSLKPEDTAVSYCAASIPSTHGYAYDYWGQGNQVTVSS”, which “polyreactivity (PSR sort gate)” value is on record?
Answer: high polyreactivity

Question: For “QVQLVESGGGLVQAGGSLRLSCAASGIFLGYALGWYRQAPGKERELVAAITSGDSTYYADSVKGRFTISRDNAKNTVYLQMNSLKPEDTAVYYCAKTRYSWPRVWYNYWGQGTQVTVSS”, which “polyreactivity (PSR sort gate)” value is on record?
Answer: low polyreactivity

Question: For “QVQLVESGGGLVQAGGSLRLSCAASGIFRGYAMGWYRQAPGKERELVAAISWGGGSTYYADSVKGRFTISRDNAKNTVYLQMNSLKPEDTAVYYCIAADFGWDYAYYYWGQGTQVTVSS”, which “polyreactivity (PSR sort gate)” value is on record?
Answer: low polyreactivity

Question: Which “polyreactivity (PSR sort gate)” value does the source give for “QVQLVESGGGLVQAGGSLRLSCAASGIFRQNAMGWYRQAPGKERELVAGISQSGGSTYYADSVKGRFTISRDNAKNTVYLQMNSLKPEDTSVYYCALVSIWGYDYWGQGTQVTVSS” here?
Answer: low polyreactivity

Question: Which “polyreactivity (PSR sort gate)” value does the source give for “QVQLVESGGGLVQAGGSLRLSCAASGIFRRYAMGWYRQAPGKERELVAAISSSGGSTDYADSVKGRFTISRDNAKNTVYLQMNSLKPEDTAVYYCNAYDQHGWWCYAYDYWGQGTQVTVSS” here?
Answer: high polyreactivity

Question: Which “polyreactivity (PSR sort gate)” value does the source give for “QVQLVESGGGLVQAGGSLRLSCAASGIFRRYAMGWYRQAPGKERELVAAISSSGGSTDYADSVKGRFTISRDNAKNTVYLQMNSLKPEDTAVYYCNAYDQHGWWSYAYDYWGQGTQVTVSS” here?
Answer: high polyreactivity

Question: For “QVQLVESGGGLVQAGGSLRLSCAASGIFVRYAMGWYRQAPGKEREMVAAISFSDDSTYYADSVKGRFTISRDNAKNTVYLQMNSLKPEDTAVYYCNARLERTPCLYLYGSWGQVTQVTVSS”, which “polyreactivity (PSR sort gate)” value is on record?
Answer: low polyreactivity

Question: For “QVQLVESGGGLVQAGGSLRLSCAASGIFVTYAMGWYRQAPGTERELVAAIRYSGDSTYYADSVKGRFTISRDNAKNTVYLQMNSLKPEETAVYYCAATKGWSRYEYWGQGTQVTVSS”, which “polyreactivity (PSR sort gate)” value is on record?
Answer: low polyreactivity

Question: Which “polyreactivity (PSR sort gate)” value does the source give for “QVQLVESGGGLVQAGGSLRLSCAASGIFYFYAMGWYRQAPGKERELVAAITSSGGNTTYADSVKGRFTISRDNAKNTVYLQMNSLKPEDTAVYYCNAEAYSYGFDYWGQRTQVTVSS” here?
Answer: low polyreactivity

Question: With “QVQLVESGGGLVQAGGSLRLSCAASGIICPENAMGWYRQAPGKERELVAAISKSGGRTYYADSVKGRFTISRDNAKNTVYLQMNSLKPEDTAVYYCAKVPYAYSRDRSAEDSWGQATQVTVSS” as the sequence, how does the “polyreactivity (PSR sort gate)” value read?
Answer: high polyreactivity

Question: With “QVQLVESGGGLVQAGGSLRLSCAASGIIFAFYAMGWYRQAPGKERELVATISKSGGRTYYADSVKGRFTISRDNAKNTVYLQMNSLNPEDTAVYYCAARIQYAFGADYYWGQGTQVTVSS” as the sequence, how does the “polyreactivity (PSR sort gate)” value read?
Answer: low polyreactivity

Question: Which “polyreactivity (PSR sort gate)” value does the source give for “QVQLVESGGGLVQAGGSLRLSCAASGIIFAGNTMGWYIQAPWKERELVAAITWSGGSTYYADSVKGRFTISRDNAKNTVYLQMNSQKPEDTAVYYCAAYYGGYGWDDKYDYWGQGTQVTVSS” here?
Answer: low polyreactivity

Question: With “QVQLVESGGGLVQAGGSLRLSCAASGIIFAQYTMGWYRQAPGKERELVAAINRNGGSTYYADSVKGRFTISRDNAKNTVYLQMNSLKPEDTAVYYCNADALGFRYDYWGQGTQVTLSS” as the sequence, how does the “polyreactivity (PSR sort gate)” value read?
Answer: low polyreactivity

Question: With “QVQLVESGGGLVQAGGSLRLSCAASGIIFARYAMGWYRQAPGKERELVAVISGSGGSTYYADSVKGRFTISRDNAKNTVYLQMNSLKPEDTAVYYCNAEFESGHDLDWYDYWGQGTQVTVSS” as the sequence, how does the “polyreactivity (PSR sort gate)” value read?
Answer: low polyreactivity

Question: Which “polyreactivity (PSR sort gate)” value does the source give for “QVQLVESGGGLVQAGGSLRLSCAASGIIFASNAMGWYIQAPGKERELVATINWTDSTTYYADSVKGRFTISRDNAKNNVYLLMNSLKPEDTAGYYCNAVPHWFYRYGRYDYWGQGTQVTVSS” here?
Answer: low polyreactivity
